In patent US20140364335A1, “METHOD FOR SCREENING FOR NRF1 REGULATOR” (Mochida Pharmaceutical Co., Ltd., priority 2012, published 2014):
Where a SMILES comes first, the peptide text is derived from it. The star is where a group is joined. Cbz = O=C(OCc1ccccc1)*

Experiments:
[1] = tested on: full-length mouse Nrf1 and luciferase fusion protein (mNrf1-Luc); assay: Luciferase activity in Hepa1 cell line stably expressing mouse Nrf1-luciferase fusion protein (Nrf1 stabilization assay); assay type: cell-based; settings: mNrf1-Luc stable Hepa1 cell lines, 10 μM MG-132, 4 hours, vs DMSO
Description: (§1) Cloning of mouse Nrf1 cDNA was performed using a method known in the art (Zhang et al., Biochem. J. 399: 373-385. (2006)). An expression vector of full-length mouse Nrf1 and luciferase fusion protein (mNrf1-Luc) was prepared by ligating the sequence, which was amplified by the following primers: 5′-TAATACGACTCACTATAGGG-3′ (SEQ ID NO: 21) and 5′-CTTTATGTTTTTGGCGTCTTCCTTCCTCCGGTCCTTTG-3′ (SEQ ID NO: 22) using mouse Nrf1 cDNA sequence as a template, and the sequence, which was amplified by the following primers: 5′-CAAAGGACCGGAGGAAGGAAGACGCCAAAAACATAAAG-3′ (SEQ ID NO: 23) and 5′-GACTCTAGAATTACACGGCG-3′ (SEQ ID NO: 24) using pGL3-basic vector (Promega) as a template; and cloning the resulting sequence at a KpnI/XbaI site of pcDNA3.1/V5His B plasmid (Invitrogen). […]
(§2) Cells of each cell line were seeded at a density of 5×10^4 cells per well in a 24-well plate, cultured overnight and treated with a solvent control, DMSO or 10 μM MG-132 (Peptide Institute) for 4 hours. Thereafter, the firefly luciferase activity was measured using dual luciferase kit (Promega) and a luminometer (Berthold).

[2] = tested on: CNC-bZip domain-deficient mouse Nrf1 and luciferase fusion protein (mNrf1ΔCNC-bZip-Luc); assay: Luciferase activity in Hepa1 cell line stably expressing CNC-bZip domain-deficient mouse Nrf1-luciferase fusion protein; assay type: cell-based; settings: mNrf1ΔCNC-bZip-Luc stable Hepa1 cell lines, 10 μM MG-132, 4 hours, vs DMSO
Description: as §1, §2

[3] = target: T1, Nrf1 CT (G341-K741)/MafG 1-123 heterodimer (Mus musculus, UniProt Q61985;O54790 Q61985:341-741,O54790:1-123); assay: EMSA; slightly weaker than for Nqo1 ARE; room temperature 20 min; probe boundaries in FIG. 6E may differ from the reporter insert; settings: tags: 6xHis on each; E. coli; label: 5' biotin (EMSA)
Description: (§3) (A to C) Hepa1 cells were cotransfected with luciferase reporter constructs containing the AREs from the Lipin1 promoter (A), Lipin1 intron (B) or PGC-1β intron (C) together with or without the Nrf1 expression vector. The average values±S.D are shown, n=3. The vertical axis indicates relative luciferase units (RLU). The firefly luciferase activity in the absence of effector plasmids is set to 1. (D) The EMSA analysis was performed with biotin-labeled probes containing the AREs from the Nqo1 promoter, Lipin1 promoter, Lipin1 intron and PGC-1β intron regions. Recombinant MafG and/or Nrf1 or Nrf2 proteins were incubated with the probes, and the protein-DNA complexes and free probes were resolved by electrophoresis. (E) The sequences of the wild-type (W) and mutant (M) oligonucleotides are shown. The mutation sites of the sequences are underlined. (F) Nrf2 and MafG proteins were incubated in combination in the presence or absence of a 200-fold molar excess of unlabeled competitor DNA. The open arrowheads indicate Nrf1/MafG heterodimer complexes, the solid arrowheads indicate Nrf2-MafG heterodimer complexes and the arrows indicate MafG homodimer complexes.
(§4) EMSA was performed in accordance with a method known in the art. […]

[4] = target: T1, Nrf1 CT (G341-K741)/MafG 1-123 …; assay: EMSA; room temperature 20 min; probe boundaries in FIG. 6E may differ from the reporter insert; settings: tags: 6xHis on each; E. coli; label: 5' biotin (EMSA)
Description: as §3, §4

[5] = target: MafG 1-123 homodimer (UniProt O54790 O54790:1-123); assay: EMSA; MafG homodimer; MARE-like site; settings: tags: 6xHis; E. coli; chain copies: 2 (stated); label: 5' biotin (EMSA)
Description: as §3, §4

T1 sequence (Q61985 341-741, chain 1 of 2): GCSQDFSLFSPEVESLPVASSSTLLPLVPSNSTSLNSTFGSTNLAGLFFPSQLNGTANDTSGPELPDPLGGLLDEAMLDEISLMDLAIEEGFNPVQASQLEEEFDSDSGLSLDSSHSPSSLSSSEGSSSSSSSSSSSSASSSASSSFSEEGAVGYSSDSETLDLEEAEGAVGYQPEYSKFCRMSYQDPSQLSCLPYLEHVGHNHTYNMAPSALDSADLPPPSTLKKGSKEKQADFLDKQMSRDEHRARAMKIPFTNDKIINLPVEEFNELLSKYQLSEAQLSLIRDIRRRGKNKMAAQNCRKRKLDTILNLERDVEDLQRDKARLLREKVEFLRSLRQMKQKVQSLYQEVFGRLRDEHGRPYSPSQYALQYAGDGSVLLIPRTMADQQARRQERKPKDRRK
T1 sequence (O54790 1-123, chain 2 of 2): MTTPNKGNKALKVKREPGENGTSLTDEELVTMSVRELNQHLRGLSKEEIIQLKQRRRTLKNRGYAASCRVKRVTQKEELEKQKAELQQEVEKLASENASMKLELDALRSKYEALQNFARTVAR
Chain of MafG 1-123 homodimer (O54790 1-123, one chain of several): as the sequence (O54790 1-123, chain 2 of 2) above

| Molecule | luciferase activity compared to solvent [1] | luciferase activity compared to solvent [2] | binding result [3] | binding result [4] | binding result [5] |
| --- | --- | --- | --- | --- | --- |
| CC(C)C[C@@H](C=O)NC(=O)[C@H](CC(C)C)NC(=O)[C@H](CC(C)C)NC(=O)OCc1ccccc1 [MG-132] (Cbz-Leu-Leu-Leu-aldehyde) | drastic increase of luciferase activity | drastic increase of luciferase activity | – | – | – |
| Lipin1 promoter ARE (dsDNA) DNA 1: ACGCTCCTGCCGCTGAGCTGTGACTCAGCCAGAGAACTGAG DNA 2: CTCAGTTCTCTGGCTGAGTCACAGCTCAGCGGCAGGAGCGT | – | – | binds | – | – |
| Lipin1 intron ARE (dsDNA) DNA 1: CACACCCTGCCCAGAGGCACACTTGCTGAGTCAGCACCCCGG DNA 2: CCGGGGTGCTGACTCAGCAAGTGTGCCTCTGGGCAGGGTGTG | – | – | – | binds | binds |
| PGC-1beta intron ARE (dsDNA) DNA 1: TTGATAGTGAGGGGAACATGCTGACTCAGCAGCTCCGAATAA DNA 2: TTATTCGGAGCTGCTGAGTCAGCATGTTCCCCTCACTATCAA | – | – | – | binds | binds |
